Reference: patent US20180044406A1 (UNIVERSITY OF ROCHESTER, published 2018)

Biological target: T1, recombinant His-glucosaminidase (His-Gmd), 6-His tagged 53 kDa glucosaminidase subunit of S. aureus autolysin (Staphylococcus aureus, UniProt A7X0T9 776-1254)
T1 sequence: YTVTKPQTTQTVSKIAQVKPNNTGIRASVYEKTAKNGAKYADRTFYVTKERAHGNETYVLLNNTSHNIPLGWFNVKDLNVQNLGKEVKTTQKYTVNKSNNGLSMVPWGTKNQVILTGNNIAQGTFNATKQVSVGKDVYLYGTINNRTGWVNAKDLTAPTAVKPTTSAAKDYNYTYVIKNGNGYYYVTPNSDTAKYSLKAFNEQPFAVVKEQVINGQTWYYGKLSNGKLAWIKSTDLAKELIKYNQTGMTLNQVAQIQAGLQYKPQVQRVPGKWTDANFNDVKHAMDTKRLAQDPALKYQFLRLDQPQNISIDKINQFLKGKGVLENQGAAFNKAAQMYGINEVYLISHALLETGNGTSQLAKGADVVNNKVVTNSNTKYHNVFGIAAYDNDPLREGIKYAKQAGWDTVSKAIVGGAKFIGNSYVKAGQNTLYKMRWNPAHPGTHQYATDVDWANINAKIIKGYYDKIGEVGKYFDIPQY
Assay: cell-based or functional assay

B1: monoclonal antibody 4A12 (mouse IgG1) (antibody, V domains shown)
VH: QVQLQQPGAELVGPGTSVKLSCKSSGYTFTKYWMHWLKQRPGQGLEWIGVIDPSDSYTNYNQKFKGKATLTVDTSSSTAYLQLSSLTSEDSAVYYCANYYGSYYDVMDFWGQGTSVTVSS
VL: DVQITQSPSYLAASPGETITINCRASKSISKYLAWYQEKPGKTNKLLICFGSTLQSGTPSRFSGSGSGTDFTLTISSLEPEDFATYYCQQHNEYPLTFGAGTKLELKR
- fold difference, mouse 4A12 against h4A12, in the minimum concentration able to achieve ~100% inhibition of Gmd activity: ~3 fold
